Here are results for four molecules from article PMC8685902, “Perception of structurally distinct effectors by the integrated WRKY domain of a plant immune receptor”.

The term stoichiometry N denotes a count of units in the complex or per binding partner. A word on the Kd: it is a measure of binding affinity in units of concentration. A low value points to tighter binding.

In series [1] the target is RRS1^WRKY, integrated WRKY domain of RRS1-R (residues 1194 to 1273) (Arabidopsis). The experiment in a line: ITC; AvrRps4^C (wild type or mutant) titrated into a solution of the WRKY domain; three independent experiments fitted globally to a 1:1 binding model (AFFINImeter). In general terms: ITC needs no label: the signal is the heat of the interaction.
For series [2], the target named is AvrRps4^C, in planta processed C-terminal fragment of AvrRps4 (residues 134 to 221) (Pseudomonas syringae pv. pisi). Briefly: SEC; analytical gel filtration on a Superdex 75 10/300 column; proteins alone and after incubation at an equimolar (1:1) ratio. Background: Size exclusion chromatography separates by hydrodynamic size, large species first.
Series [3] has as its target RRS1^WRKY, integrated WRKY domain of RRS1-R (residues 1194 to 1273) (Arabidopsis). The description is as above.
The target of series [4] is AtWRKY41 (Thr125 to Ile204), DNA-binding domain (Arabidopsis) (UniProt Q8H0Y8). The experiment in a line: ITC; AvrRps4^C (wild type or mutant) titrated into a solution of the WRKY domain; three independent experiments fitted globally to a 1:1 binding model (AFFINImeter).
The target of series [5] is RRS1B^WRKY, integrated WRKY domain of RRS1B (Asn1164 to Thr1241) (Arabidopsis) (UniProt Q9FL92). The series is described as above.
Chain of RRS1B^WRKY, integrated WRKY domain of RRS1B (Asn1164 to Thr1241) (Arabidopsis) (Q9FL92 1164-1241): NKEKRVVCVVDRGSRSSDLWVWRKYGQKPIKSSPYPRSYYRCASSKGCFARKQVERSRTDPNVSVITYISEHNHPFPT
The target of series [6] is AtWRKY41 DNA-binding domain (Thr125-Ile204) (Arabidopsis) (UniProt Q8H0Y8). Briefly: ITC; MicroCal PEAQ-ITC; cell 20 uM RRS1WRKY, AtWRKY41 or RRS1BWRKY, syringe 200 uM AvrRps4C wild type or mutant; 25 C; buffer A4 (20 mM HEPES pH 7.5, 150 mM NaCl); triplicate, global fit to a 1:1 binding model (AFFINImeter).
Series [7] concerns the target RRS1B^WRKY, integrated WRKY domain of RRS1B (Asn1164-Thr1241) (Arabidopsis) (UniProt Q9FL92). The series is described as above.
Series [8] addresses T1, RRS1 WRKY domain (RRS1-R) (UniProt C4B7M5 1194-1273).
T1 sequence: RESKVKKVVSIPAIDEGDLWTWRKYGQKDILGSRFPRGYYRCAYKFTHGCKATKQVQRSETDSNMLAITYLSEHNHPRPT
Briefly: EMSA; no effector; EMSA: 10 mM Tris-Cl pH 7.5, 50 mM KCl, 1 mM DTT, 5% glycerol; SPR: 10 mM HEPES pH 7.5, 250 mM NaCl, 0.005% Tween-20, 25 C (Biacore 8K, ReDCaT). Conditions: protein: recombinant; tags: 6xHis-MBP (pOPIN-M), cleaved with 3C; label: 5' Cy3 on forward strand; blunt.

Series [9] concerns the target T2, AtWRKY41 DNA-binding domain (UniProt Q8H0Y8 125-204).
T2 sequence: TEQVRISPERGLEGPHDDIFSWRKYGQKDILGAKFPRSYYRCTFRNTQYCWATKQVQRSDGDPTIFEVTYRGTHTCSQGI
The series is described as above. Particulars: protein: recombinant; tags: 6xHis-MBP (pOPIN-M), cleaved with 3C; label: 5' Cy3 on forward strand; blunt.

Chain of RRS1B^WRKY, integrated WRKY domain of RRS1B (Asn1164-Thr1241) (Arabidopsis) (Q9FL92 1164-1241): as the sequence (Q9FL92 1164-1241) above

Turning to AvrRps4^C Q194A (domain or fragment), the fold reduction in affinity against wild-type AvrRps4^C in series [1] turned out to be 7 fold.
In the case of “AvrRps4^C, in planta processed C-terminal fragment of AvrRps4 (residues 134 to 221) (domain or fragment)”, the figures for the stoichiometry N in series [2], in [3] and in series [1] were 2, 1 and 1, respectively. For the same molecule, the equilibrium dissociation constant (Kd) came out at 20 nM in series [4] and 103 nM in series [1]. Besides, the fold weaker binding than to RRS1^WRKY in [5] was 3 fold.
On to “AvrRps4^C, the in planta processed C-terminal fragment of AvrRps4 (residues 134-221) (domain or fragment)”, for which the stoichiometry N in [6] is 1.1; in series [7] it was 0.8.

B1: Cy3 W-box DNA (dsDNA)
DNA 1: CGCCTTTGACCAGCGC
DNA 2: GCGCTGGTCAAAGGCG
Consider B1, for which the binding result in series [8] and in series [9] was “binds” each time.
